The source of these data is patent US20190270786A1 (PROTAGONIST THERAPEUTICS, published 2019).

Bridge positions count the residues as written; N and C are the ends.

Test [1] concerns the target T1, human IL-23 (human, UniProt Q9NPF7 20-189; P29460 23-328).
T1 construct: also called interleukin-23
T1 sequence (looked up) 1: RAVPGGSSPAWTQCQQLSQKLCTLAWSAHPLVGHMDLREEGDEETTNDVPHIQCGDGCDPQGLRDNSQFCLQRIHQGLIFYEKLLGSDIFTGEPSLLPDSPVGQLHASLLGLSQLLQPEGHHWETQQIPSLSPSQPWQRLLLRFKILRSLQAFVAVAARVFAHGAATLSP
T1 sequence (looked up) 2: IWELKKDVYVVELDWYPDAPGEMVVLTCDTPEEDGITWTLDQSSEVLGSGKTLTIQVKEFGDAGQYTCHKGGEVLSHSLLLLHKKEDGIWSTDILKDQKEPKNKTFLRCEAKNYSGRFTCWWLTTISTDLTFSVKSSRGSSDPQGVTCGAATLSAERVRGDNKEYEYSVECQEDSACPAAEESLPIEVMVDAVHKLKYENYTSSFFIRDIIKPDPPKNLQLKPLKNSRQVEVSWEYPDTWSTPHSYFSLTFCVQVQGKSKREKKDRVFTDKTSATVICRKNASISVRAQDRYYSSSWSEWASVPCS
The test is described as follows: Human IL23/IL12Rβ1 huFc competition ELISA (IL-12Rβ1_huFC coated, IL-23 at its EC50). The procedure:
(§1) Human IL-12Rβ1 ELISA assays were performed as follows: an assay plate was coated with 100 ng/well of human IL-12Rβ1_huFC and incubated overnight at 4° C. The wells were washed, blocked, and washed again. […] Signals were visualized with TMB One Component HRP Membrane Substrate and quenched with 2 M sulfuric acid.
Background: An ELISA detects its analyte on a solid surface through an enzyme-linked reagent.

Test [2] concerns the target T1, human IL-23. The test is described as follows: cell-based or functional assay.
In a further test the target is T2, human IL-12 (human, UniProt P29459 23-219; P29460 23-328).
T2 sequence (looked up) 1: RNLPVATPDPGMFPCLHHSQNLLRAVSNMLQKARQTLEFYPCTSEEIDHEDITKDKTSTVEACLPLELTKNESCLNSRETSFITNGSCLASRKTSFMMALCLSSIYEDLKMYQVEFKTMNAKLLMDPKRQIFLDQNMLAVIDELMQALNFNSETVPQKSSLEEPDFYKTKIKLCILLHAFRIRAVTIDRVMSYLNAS
T2 sequence (looked up) 2: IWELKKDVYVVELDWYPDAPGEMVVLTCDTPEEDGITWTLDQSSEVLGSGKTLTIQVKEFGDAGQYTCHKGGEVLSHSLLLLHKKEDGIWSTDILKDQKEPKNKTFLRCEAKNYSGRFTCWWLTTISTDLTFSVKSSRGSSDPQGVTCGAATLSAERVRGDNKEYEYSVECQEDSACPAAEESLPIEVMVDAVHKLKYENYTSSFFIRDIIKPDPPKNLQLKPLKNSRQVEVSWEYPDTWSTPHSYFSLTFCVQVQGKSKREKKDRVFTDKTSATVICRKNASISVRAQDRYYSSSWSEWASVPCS
Description: Human IL12/IL12Rβ1 huFc competition ELISA (IL-12Rβ1_huFC coated, IL-12 at its EC50). The protocol: as §1

Test [3] concerns the target T1, human IL-23. The test is described as follows: Human IL23/IL23R huFc competition ELISA. The protocol:
(§2) Immulon® 4HBX plate was coated with 200 ng/well of IL23R_huFC and incubated overnight at 4° C. The wells were washed three times with PBST, blocked with PBS containing 5% PhosphoBLOCKER (Cell Biolabs #AKR-103) for 1 hour at room temperature, and washed again three times with PBST. […] The wells were again washed four times with PBST. The secondary antibodies, HRP conjugated donkey anti-goat IgG (Jackson ImmunoResearch Laboratories #705-035-147) diluted 1:5000 in PBS, was then added and incubated for 30 minutes at room temperature. The plate was finally washed as above. Signals were visualized with TMB One Component HRP Membrane Substrate, quenched with 2 M sulfuric acid and read spectrophotometrically at 450 nm.

Another test concerns the target T3, mouse IL-23 (mouse, UniProt Q9EQ14 22-196; P43432 23-335).
T3 sequence (looked up) 1: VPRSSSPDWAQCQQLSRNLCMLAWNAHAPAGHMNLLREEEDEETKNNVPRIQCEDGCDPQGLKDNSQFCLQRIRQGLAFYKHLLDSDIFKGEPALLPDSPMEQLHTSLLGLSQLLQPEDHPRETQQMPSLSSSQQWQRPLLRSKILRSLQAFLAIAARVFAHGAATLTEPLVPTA
T3 sequence (looked up) 2: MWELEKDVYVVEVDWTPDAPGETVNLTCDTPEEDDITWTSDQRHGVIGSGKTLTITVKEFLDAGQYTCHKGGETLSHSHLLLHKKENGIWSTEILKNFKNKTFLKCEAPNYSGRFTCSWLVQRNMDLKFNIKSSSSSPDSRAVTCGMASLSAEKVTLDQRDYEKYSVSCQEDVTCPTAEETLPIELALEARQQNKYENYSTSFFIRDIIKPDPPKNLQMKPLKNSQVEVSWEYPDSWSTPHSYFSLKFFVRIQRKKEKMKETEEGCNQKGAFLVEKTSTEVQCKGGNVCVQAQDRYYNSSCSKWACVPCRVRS
The test is described as follows: Mouse IL23/IL23R huFc competition ELISA.

The target in test [4] is T1, human IL-23. The test is described as follows: IL23-IL23R competitive binding ELISA (IL23R_huFC coated, 0.9 nM IL-23, peptide titrated); bin by the legend in paragraph 291. The protocol:
as §2

B1: Ustekinumab (antibody, V domains shown)
VH: EVQLVQSGAEVKKPGESLKISCKGSGYSFTTYWLGWVRQMPGKGLDWIGIMSPVDSDIRYSPSFQGQVTMSVDKSITTAYLQWNSLKASDTAMYYCARRRPGQGYFDFWGQGTLVTVSS
VL: DIQMTQSPSSLSASVGDRVTITCRASQGISSWLAWYQQKPEKAPKSLIYAASSLQSGVPSRFSGSGSGTDFTLTISSLQPEDFATYYCQQYNIYPYTFGQGTKLEIK
For the molecule B1, in the test with human IL-23 [1], the IC50 (commonly the concentration that inhibits the measured activity by half) came out at 0.14 µg/mL.

B2: Peptide 10 (peptide)
peptide: Ac-FNMQCLRRMSEAGVDPNLNQEQRWAKIKSIMDDC-NH2
modifications: disulfide 5-34
SMILES: CC[C@H](C)[C@@H]1NC(=O)[C@H](CCCCN)NC(=O)[C@H](C)NC(=O)[C@H](Cc2c[nH]c3ccccc23)NC(=O)[C@H](CCCNC(=N)N)NC(=O)[C@H](CCC(N)=O)NC(=O)[C@H](CCC(=O)O)NC(=O)[C@H](CCC(N)=O)NC(=O)[C@H](CC(N)=O)NC(=O)[C@H](CC(C)C)NC(=O)[C@H](CC(N)=O)NC(=O)[C@@H]2CCCN2C(=O)[C@H](CC(=O)O)NC(=O)[C@H](C(C)C)NC(=O)CNC(=O)[C@H](C)NC(=O)[C@H](CCC(=O)O)NC(=O)[C@H](CO)NC(=O)[C@H](CCSC)NC(=O)[C@H](CCCNC(=N)N)NC(=O)[C@H](CCCNC(=N)N)NC(=O)[C@H](CC(C)C)NC(=O)[C@@H](NC(=O)[C@H](CCC(N)=O)NC(=O)[C@H](CCSC)NC(=O)[C@H](CC(N)=O)NC(=O)[C@H](Cc2ccccc2)NC(C)=O)CSSC[C@@H](C(N)=O)NC(=O)[C@H](CC(=O)O)NC(=O)[C@H](CC(=O)O)NC(=O)[C@H](CCSC)NC(=O)[C@H]([C@@H](C)CC)NC(=O)[C@H](CO)NC(=O)[C@H](CCCCN)NC1=O
notes: Synthetic peptide
For B2, the “Mouse splenocyte assay: IC50 of IL-23-dependent IL-17A release” value with human IL-23 [2] is 1.6 µM. Moreover, the IC50 is > 100 µM with human IL-12, > 100 µM with human IL-23 [1], 3.3 µM with human IL-23 [3] and 3.6 µM with mouse IL-23.

B3: Peptide 13 (peptide)
peptide: Ac-FNMQCLRRMAEAGVDPNLNQEQRWAKIKSIMDDC-NH2
modifications: disulfide 5-34
SMILES: CC[C@H](C)[C@@H]1NC(=O)[C@H](CCCCN)NC(=O)[C@H](C)NC(=O)[C@H](Cc2c[nH]c3ccccc23)NC(=O)[C@H](CCCNC(=N)N)NC(=O)[C@H](CCC(N)=O)NC(=O)[C@H](CCC(=O)O)NC(=O)[C@H](CCC(N)=O)NC(=O)[C@H](CC(N)=O)NC(=O)[C@H](CC(C)C)NC(=O)[C@H](CC(N)=O)NC(=O)[C@@H]2CCCN2C(=O)[C@H](CC(=O)O)NC(=O)[C@H](C(C)C)NC(=O)CNC(=O)[C@H](C)NC(=O)[C@H](CCC(=O)O)NC(=O)[C@H](C)NC(=O)[C@H](CCSC)NC(=O)[C@H](CCCNC(=N)N)NC(=O)[C@H](CCCNC(=N)N)NC(=O)[C@H](CC(C)C)NC(=O)[C@@H](NC(=O)[C@H](CCC(N)=O)NC(=O)[C@H](CCSC)NC(=O)[C@H](CC(N)=O)NC(=O)[C@H](Cc2ccccc2)NC(C)=O)CSSC[C@@H](C(N)=O)NC(=O)[C@H](CC(=O)O)NC(=O)[C@H](CC(=O)O)NC(=O)[C@H](CCSC)NC(=O)[C@H]([C@@H](C)CC)NC(=O)[C@H](CO)NC(=O)[C@H](CCCCN)NC1=O
notes: Synthetic peptide
As to B3, in the test with human IL-23 [4], the concentration for half-maximal inhibition (IC50) is ≤ 1 µM.
